B1: sp¦Q9BUQ8¦DDX23_HUMAN (protein, UniProt Q9BUQ8 1-820, looked up)
Probable ATP-dependent RNA …: MAGELADKKDRDASPSKEERKRSRTPDRERDRDRDRKSSPSKDRKRHRSRDRRRGGSRSRSRSRSKSAERERRHKERERDKERDRNKKDRDRDKDGHRRDKDRKRSSLSPGRGKDFKSRKDRDSKKDEEDEHGDKKPKAQPLSLEELLAKKKAEEEAEAKPKFLSKAEREAEALKRRQQEVEERQRMLEEERKKRKQFQDLGRKMLEDPQERERRERRERMERETNGNEDEEGRQKIREEKDKSKELHAIKERYLGGIKKRRRTRHLNDRKFVFEWDASEDTSIDYNPLYKERHQVQLLGRGFIAGIDLKQQKREQSRFYGDLMEKRRTLEEKEQEEARLRKLRKKEAKQRWDDRHWSQKKLDEMTDRDWRIFREDYSITTKGGKIPNPIRSWKDSSLPPHILEVIDKCGYKEPTPIQRQAIPIGLQNRDIIGVAETGSGKTAAFLIPLLVWITTLPKIDRIEESDQGPYAIILAPTRELAQQIEEETIKFGKPLGIRTVAVIGGISREDQGFRLRMGCEIVIATPGRLIDVLENRYLVLSRCTYVVLDEADRMIDMGFEPDVQKILEHMPVSNQKPDTDEAEDPEKMLANFESGKHKYRQTVMFTATMPPAVERLARSYLRRPAVVYIGSAGKPHERVEQKVFLMSESEKRKKLLAILEQGFDPPIIIFVNQKKGCDVLAKSLEKMGYNACTLHGGKGQEQREFALSNLKAGAKDILVATDVAGRGIDIQDVSMVVNYDMAKNIEDYIHRIGRTGRAGKSGVAITFLTKEDSAVFYELKQAILESPVSSCPPELANHPDAQHKPGTILTKKRREETIFA
B2: sp¦P53618¦COPB_HUMAN (protein, UniProt P53618 2-953, looked up)
Coatomer subunit beta: TAAENVCYTLINVPMDSEPPSEISLKNDLEKGDVKSKTEALKKVIIMILNGEKLPGLLMTIIRFVLPLQDHTIKKLLLVFWEIVPKTTPDGRLLHEMILVCDAYRKDLQHPNEFIRGSTLRFLCKLKEAELLEPLMPAIRACLEHRHSYVRRNAVLAIYTIYRNFEHLIPDAPELIHDFLVNEKDASCKRNAFMMLIHADQDRALDYLSTCIDQVQTFGDILQLVIVELIYKVCHANPSERARFIRCIYNLLQSSSPAVKYEAAGTLVTLSSAPTAIKAAAQCYIDLIIKESDNNVKLIVLDRLIELKEHPAHERVLQDLVMDILRVLSTPDLEVRKKTLQLALDLVSSRNVEELVIVLKKEVIKTNNVSEHEDTDKYRQLLVRTLHSCSVRFPDMAANVIPVLMEFLSDNNEAAAADVLEFVREAIQRFDNLRMLIVEKMLEVFHAIKSVKIYRGALWILGEYCSTKEDIQSVMTEIRRSLGEIPIVESEIKKEAGELKPEEEITVGPVQKLVTEMGTYATQSALSSSRPTKKEEDRPPLRGFLLDGDFFVAASLATTLTKIALRYVALVQEKKKQNSFVAEAMLLMATILHLGKSSLPKKPITDDDVDRISLCLKVLSECSPLMNDIFNKECRQSLSHMLSAKLEEEKLSQKKESEKRNVTVQPDDPISFMQLTAKNEMNCKEDQFQLSLLAAMGNTQRKEAADPLASKLNKVTQLTGFSDPVYAEAYVHVNQYDIVLDVLVVNQTSDTLQNCTLELATLGDLKLVEKPSPLTLAPHDFANIKANVKVASTENGIIFGNIVYDVSGAASDRNCVVLSDIHIDIMDYIQPATCTDAEFRQMWAEFEWENKVTVNTNMVDLNDYLQHILKSTNMKCLTPEKALSGYCGFMAANLYARSIFGEDALANVSIEKPIHQGPDAAVTGHIRIRAKSQGMALSLGDKINLSQKKTSI
B3: sp¦Q8IX12¦CCAR1_HUMAN (protein, UniProt Q8IX12 1-1150, looked up)
Cell division cycle and …: MAQFGGQKNPPWATQFTATAVSQPAALGVQQPSLLGASPTIYTQQTALAAAGLTTQTPANYQLTQTAALQQQAAAAAAALQQQYSQPQQALYSVQQQLQQPQQTLLTQPAVALPTSLSLSTPQPTAQITVSYPTPRSSQQQTQPQKQRVFTGVVTKLHDTFGFVDEDVFFQLSAVKGKTPQVGDRVLVEATYNPNMPFKWNAQRIQTLPNQNQSQTQPLLKTPPAVLQPIAPQTTFGVQTQPQPQSLLQAQISAASITPLLQTQPQPLLQQPQQKAGLLQPPVRIVSQPQPARRLDPPSRFSGRNDRGDQVPNRKDDRSRERERERRRSRERSPQRKRSRERSPRRERERSPRRVRRVVPRYTVQFSKFSLDCPSCDMMELRRRYQNLYIPSDFFDAQFTWVDAFPLSRPFQLGNYCNFYVMHREVESLEKNMAILDPPDADHLYSAKVMLMASPSMEDLYHKSCALAEDPQELRDGFQHPARLVKFLVGMKGKDEAMAIGGHWSPSLDGPDPEKDPSVLIKTAIRCCKALTGIDLSVCTQWYRFAEIRYHRPEETHKGRTVPAHVETVVLFFPDVWHCLPTRSEWETLSRGYKQQLVEKLQGERKEADGEQDEEEKDDGEAKEISTPTHWSKLDPKTMKVNDLRKELESRALSSKGLKSQLIARLTKQLKVEEQKEEQKELEKSEKEEDEDDDRKSEDDKEEEERKRQEEIERQRRERRYILPDEPAIIVHPNWAAKSGKFDCSIMSLSVLLDYRLEDNKEHSFEVSLFAELFNEMLQRDFGVRIYKSLLSLPEKEDKKEKDKKSKKDERKDKKEERDDETDEPKPKRRKSGDDKDKKEDRDERKKEDKRKDDSKDDDETEEDNNQDEYDPMEAEEAEDEEDDRDEEEMTKRDDKRDINRYCKERPSKDKEKEKTQMITINRDLLMAFVYFDQSHCGYLLEKDLEEILYTLGLHLSRAQVKKLLNKVVLRESCFYRKLTDTSKDEENHEESESLQEDMLGNRLLLPTPTVKQESKDVEENVGLIVYNGAMVDVGSLLQKLEKSEKVRAEVEQKLQLLEEKTDEDEKTILNLENSNKSLSGELREVKKDLSQLQENLKISENMNLQFENQMNKTIRNLSTVMDEIHTVLKKDNVKNEDKDQKSKENGASV
B4: sp¦Q9HAV4¦XPO5_HUMAN (protein, UniProt Q9HAV4 2-1204, looked up)
Exportin-5: AMDQVNALCEQLVKAVTVMMDPNSTQRYRLEALKFCEEFKEKCPICVPCGLRLAEKTQVAIVRHFGLQILEHVVKFRWNGMSRLEKVYLKNSVMELIANGTLNILEEENHIKDALSRIVVEMIKREWPQHWPDMLIELDTLSKQGETQTELVMFILLRLAEDVVTFQTLPPQRRRDIQQTLTQNMERIFSFLLNTLQENVNKYQQVKTDTSQESKAQANCRVGVAALNTLAGYIDWVSMSHITAENCKLLEILCLLLNEQELQLGAAECLLIAVSRKGKLEDRKPLMVLFGDVAMHYILSAAQTADGGGLVEKHYVFLKRLCQVLCALGNQLCALLGADSDVETPSNFGKYLESFLAFTTHPSQFLRSSTQMTWGALFRHEILSRDPLLLAIIPKYLRASMTNLVKMGFPSKTDSPSCEYSRFDFDSDEDFNAFFNSSRAQQGEVMRLACRLDPKTSFQMAGEWLKYQLSTFLDAGSVNSCSAVGTGEGSLCSVFSPSFVQWEAMTLFLESVITQMFRTLNREEIPVNDGIELLQMVLNFDTKDPLILSCVLTNVSALFPFVTYRPEFLPQVFSKLFSSVTFETVEESKAPRTRAVRNVRRHACSSIIKMCRDYPQLVLPNFDMLYNHVKQLLSNELLLTQMEKCALMEALVLISNQFKNYERQKVFLEELMAPVASIWLSQDMHRVLSDVDAFIAYVGTDQKSCDPGLEDPCGLNRARMSFCVYSILGVVKRTCWPTDLEEAKAGGFVVGYTSSGNPIFRNPCTEQILKLLDNLLALIRTHNTLYAPEMLAKMAEPFTKALDMLDAEKSAILGLPQPLLELNDSPVFKTVLERMQRFFSTLYENCFHILGKAGPSMQQDFYTVEDLATQLLSSAFVNLNNIPDYRLRPMLRVFVKPLVLFCPPEHYEALVSPILGPLFTYLHMRLSQKWQVINQRSLLCGEDEAADENPESQEMLEEQLVRMLTREVMDLITVCCVSKKGADHSSAPPADGDDEEMMATEVTPSAMAELTDLGKCLMKHEDVCTALLITAFNSLAWKDTLSCQRTTSQLCWPLLKQVLSGTLLADAVTWLFTSVLKGLQMHGQHDGCMASLVHLAFQIYEALRPRYLEIRAVMEQIPEIQKDSLDQFDCKLLNPSLQKVADKRRKDQFKRLIAGCIGKPLGEQFRKEVHIKNLPSLFKKTKPMLETEVLDNDGGGLATIFEP

Test system: human HL60 cells
Test: SWATH-MS proteomics, differential protein representation, akirin2 KO vs WT HL60 cells
Type: cell-based
Conditions: akirin2 KO vs WT HL60 cells; sheet "Under-represented in KO"
How it was run: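 Read-out is label-free SWATH-MS protein area, globally normalized to total detected-protein area, with identifications held at 1% FDR against a library from information-dependent acquisition.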

Row | Molecule | Fold Change | Log (Fold Change)
1 | B1 | 0.4207 | -0.376
2 | B2 | 0.4243 | -0.3723
3 | B3 | 0.4166 | -0.3803
4 | B4 | 0.4142 | -0.3828

Reference: article PMC8298264, “Function of cofactor Akirin2 in the regulation of gene expression in model human neutrophil-like HL60 cells” (Bioscience Reports, 2021)
